Target: T1, Human recombinant AGO2, full-length protein (human, UniProt Q9UKV8 1-859)
T1 construct: human AGO2 (argonaute 2), full-length recombinant protein; also called full-length AGO2; source: bought: Biorbyt
Assay: ELISA; plate coated with NRP1-Fc; full-length AGO2 pre-mixed or not with an equimolar amount of miR-20a (1 h, 37°C, Ca/Mg-HBSS) and serially diluted; bound AGO2 detected with anti-pan AGO2 antibody, anti-mouse IgG-HRP and TMB (OD450 minus non-specific binding)
Conditions: both partners purified

T1 sequence (Q9UKV8 whole entry): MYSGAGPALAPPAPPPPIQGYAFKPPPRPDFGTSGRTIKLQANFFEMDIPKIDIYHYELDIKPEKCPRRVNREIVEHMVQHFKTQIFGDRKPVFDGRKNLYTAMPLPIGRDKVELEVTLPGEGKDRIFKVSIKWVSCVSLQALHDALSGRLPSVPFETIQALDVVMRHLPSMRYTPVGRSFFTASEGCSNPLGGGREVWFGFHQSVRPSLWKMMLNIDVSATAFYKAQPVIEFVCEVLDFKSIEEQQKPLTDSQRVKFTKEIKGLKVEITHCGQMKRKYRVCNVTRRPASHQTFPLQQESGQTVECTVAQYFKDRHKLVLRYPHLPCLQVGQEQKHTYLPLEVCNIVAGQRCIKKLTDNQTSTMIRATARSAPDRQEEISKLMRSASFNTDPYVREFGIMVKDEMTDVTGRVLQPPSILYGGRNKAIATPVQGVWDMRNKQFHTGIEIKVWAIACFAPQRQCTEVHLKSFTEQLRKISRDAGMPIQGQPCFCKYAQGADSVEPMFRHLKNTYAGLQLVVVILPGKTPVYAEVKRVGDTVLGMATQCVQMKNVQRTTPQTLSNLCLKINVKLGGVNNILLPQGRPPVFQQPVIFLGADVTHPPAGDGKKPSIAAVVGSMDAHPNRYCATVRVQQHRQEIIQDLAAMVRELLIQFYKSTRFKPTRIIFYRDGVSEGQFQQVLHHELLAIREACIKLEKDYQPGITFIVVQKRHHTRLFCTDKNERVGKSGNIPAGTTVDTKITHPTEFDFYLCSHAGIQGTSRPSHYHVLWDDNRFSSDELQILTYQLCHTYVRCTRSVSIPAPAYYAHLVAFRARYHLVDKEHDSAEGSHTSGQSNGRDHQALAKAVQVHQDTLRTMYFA

binding result: binds
B1: Recombinant full-length rat neuropilin-1/Fc chimera (Fc fusion, UniProt Q9QWJ9 22-855, looked up)
chain: FRSDKCGGTIKIENPGYLTSPGYPHSYHPSEKCEWLIQAPEPYQRIMINFNPHFDLEDRDCKYDYVEVIDGENEGGRLWGKFCGKIAPSPVVSSGPFLFIKFVSDYETHGAGFSIRYEIFKRGPECSQNYTAPTGVIKSPGFPEKYPNSLECTYIIFAPKMSEIILEFESFDLEQDSNPPGGVFCRYDRLEIWDGFPEVGPHIGRYCGQKTPGRIRSSSGILSMVFYTDSAIAKEGFSANYSVLQSSISEDFKCMEALGMESGEIHSDQITASSQYGTNWSVERSRLNYPENGWTPGEDSYREWIQVDLGLLRFVTAVGTQGAISKETKKKYYVKTYRVDISSNGEDWITLKEGNKAIIFQGNTNPTDVVFGVFPKPLITRFVRIKPASWETGISMRFEVYGCKITDYPCSGMLGMVSGLISDSQITASNQGDRNWMPENIRLVTSRTGWALPPSPHPYINEWLQVDLGDEKIVRGVIIQGGKHRENKVFMRKFKIAYSNNGSDWKMIMDDSKRKAKSFEGNNNYDTPELRAFTPLSTRFIRIYPERATHSGLGLRMELLGCEVEVPTAGPTTPNGNPVDECDDDQANCHSGTGDDFQLTGGTTVLATEKPTIIDSTIQSEFPTYGFNCEFGWGSHKTFCHWEHDSHAQLRWRVLTSKTGPIQDHTGDGNFIYSQADENQKGKVARLVSPVVYSQSSAHCMTFWYHMSGSHVGTLRVKLHYQKPEEYDQLVWMVVGHQGDHWKEGRVLLHKSLKLYQVIFEGEIGKGNLGGIAVDDISINNHIPQEDCAKPTDLDKKNTEIKIDETGSTPGYEEGKGDKNISRKPGNVLKTLDP
notes: rat neuropilin-1, unmodified extracellular domain; transmembrane and cytosolic domains replaced with a C-terminal portion of human IgG-Fc; also called NRP1-Fc; NRP1; source: bought: R&D Systems; not shown: Fc (human IgG), C-terminal, kept

From PMC5356539, “Neuropilin-1 is a receptor for extracellular miRNA and AGO2/miRNA complexes and mediates the internalization of miRNAs that modulate cell function” (Oncotarget, 2016)
